The Human Domainome abundance scans (Beltran et al. 2025)
± gives the uncertainty stated by the source.

B1: Homeobox protein cut-like 1, residues 548 to 629; numbered along this chain, P39880 (parent)
chain: GEEMDTAEIARQVKEQLIKHNIGQRIFGHYVLGLSQGSVSEILARPKPWNKLTVRGKEPFHKMKQFLSDEQNILALRSIQGR

Variants of: B1
Experiment: abundance fitness (aPCA) (normalised: wild type 0, dead -1); higher = more abundant; growth selection in yeast, the domain comes from the species named
Details: Homo sapiens

Question: With GEEMDTAEIARQVKEQLIKHNIGQRIFGHRVLGLSQGSVSEILARPKPWNKLTVRGKEPFHKMKQFLSDEQNILALRSIQGR as the variant, how does the abundance fitness read?
Answer: -0.201 ± 0.025

Question: With GEEMDTAEIARQVKEQLIKHNIGQRIFGHQVLGLSQGSVSEILARPKPWNKLTVRGKEPFHKMKQFLSDEQNILALRSIQGR as the variant, how does the abundance fitness read?
Answer: -0.099 ± 0.036

Question: For GEEMDTAEIARQVKEQLIKHNIGQRIFGHVVLGLSQGSVSEILARPKPWNKLTVRGKEPFHKMKQFLSDEQNILALRSIQGR, which abundance fitness is on record?
Answer: -0.053 ± 0.028

Question: With GEEMDTAEIARQVKEQLIKHNIGQRIFGHMVLGLSQGSVSEILARPKPWNKLTVRGKEPFHKMKQFLSDEQNILALRSIQGR as the variant, how does the abundance fitness read?
Answer: -0.122 ± 0.039

Question: With GEEMDTAEIARQVKEQLIKHNIGQRIFGHWVLGLSQGSVSEILARPKPWNKLTVRGKEPFHKMKQFLSDEQNILALRSIQGR as the variant, how does the abundance fitness read?
Answer: -0.184 ± 0.03

Question: Which abundance fitness does the source give for GEEMDTAEIARQVKEQLIKHNIGQRIFGHPVLGLSQGSVSEILARPKPWNKLTVRGKEPFHKMKQFLSDEQNILALRSIQGR here?
Answer: -0.742 ± 0.064

Question: For GEEMDTAEIARQVKEQLIKHNIGQRIFGHNVLGLSQGSVSEILARPKPWNKLTVRGKEPFHKMKQFLSDEQNILALRSIQGR, which abundance fitness is on record?
Answer: -0.282 ± 0.058

Question: With GEEMDTAEIARQVKEQLIKHNIGQRIFGHTVLGLSQGSVSEILARPKPWNKLTVRGKEPFHKMKQFLSDEQNILALRSIQGR as the variant, how does the abundance fitness read?
Answer: -0.147 ± 0.035

Question: For GEEMDTAEIARQVKEQLIKHNIGQRIFGHYTLGLSQGSVSEILARPKPWNKLTVRGKEPFHKMKQFLSDEQNILALRSIQGR, which abundance fitness is on record?
Answer: -0.488 ± 0.045

Question: For GEEMDTAEIARQVKEQLIKHNIGQRIFGHYYLGLSQGSVSEILARPKPWNKLTVRGKEPFHKMKQFLSDEQNILALRSIQGR, which abundance fitness is on record?
Answer: -0.2 ± 0.058

Question: For GEEMDTAEIARQVKEQLIKHNIGQRIFGHYQLGLSQGSVSEILARPKPWNKLTVRGKEPFHKMKQFLSDEQNILALRSIQGR, which abundance fitness is on record?
Answer: -0.882 ± 0.071

Question: With GEEMDTAEIARQVKEQLIKHNIGQRIFGHYHLGLSQGSVSEILARPKPWNKLTVRGKEPFHKMKQFLSDEQNILALRSIQGR as the variant, how does the abundance fitness read?
Answer: -0.988 ± 0.24

Question: With GEEMDTAEIARQVKEQLIKHNIGQRIFGHYRLGLSQGSVSEILARPKPWNKLTVRGKEPFHKMKQFLSDEQNILALRSIQGR as the variant, how does the abundance fitness read?
Answer: -0.947 ± 0.046

Question: With GEEMDTAEIARQVKEQLIKHNIGQRIFGHYCLGLSQGSVSEILARPKPWNKLTVRGKEPFHKMKQFLSDEQNILALRSIQGR as the variant, how does the abundance fitness read?
Answer: -0.179 ± 0.049

Question: With GEEMDTAEIARQVKEQLIKHNIGQRIFGHYWLGLSQGSVSEILARPKPWNKLTVRGKEPFHKMKQFLSDEQNILALRSIQGR as the variant, how does the abundance fitness read?
Answer: -0.133 ± 0.031

Question: For GEEMDTAEIARQVKEQLIKHNIGQRIFGHYKLGLSQGSVSEILARPKPWNKLTVRGKEPFHKMKQFLSDEQNILALRSIQGR, which abundance fitness is on record?
Answer: -1.04 ± 0.096

Question: Which abundance fitness does the source give for GEEMDTAEIARQVKEQLIKHNIGQRIFGHYDLGLSQGSVSEILARPKPWNKLTVRGKEPFHKMKQFLSDEQNILALRSIQGR here?
Answer: -0.839 ± 0.082

Question: For GEEMDTAEIARQVKEQLIKHNIGQRIFGHYMLGLSQGSVSEILARPKPWNKLTVRGKEPFHKMKQFLSDEQNILALRSIQGR, which abundance fitness is on record?
Answer: -0.431 ± 0.051

Question: Which abundance fitness does the source give for GEEMDTAEIARQVKEQLIKHNIGQRIFGHYGLGLSQGSVSEILARPKPWNKLTVRGKEPFHKMKQFLSDEQNILALRSIQGR here?
Answer: -0.766 ± 0.036

Question: With GEEMDTAEIARQVKEQLIKHNIGQRIFGHYELGLSQGSVSEILARPKPWNKLTVRGKEPFHKMKQFLSDEQNILALRSIQGR as the variant, how does the abundance fitness read?
Answer: -0.681 ± 0.04

Question: Which abundance fitness does the source give for GEEMDTAEIARQVKEQLIKHNIGQRIFGHYLLGLSQGSVSEILARPKPWNKLTVRGKEPFHKMKQFLSDEQNILALRSIQGR here?
Answer: -0.391 ± 0.035

Question: With GEEMDTAEIARQVKEQLIKHNIGQRIFGHYNLGLSQGSVSEILARPKPWNKLTVRGKEPFHKMKQFLSDEQNILALRSIQGR as the variant, how does the abundance fitness read?
Answer: -0.713 ± 0.099

Question: Which abundance fitness does the source give for GEEMDTAEIARQVKEQLIKHNIGQRIFGHYSLGLSQGSVSEILARPKPWNKLTVRGKEPFHKMKQFLSDEQNILALRSIQGR here?
Answer: -0.806 ± 0.059

Question: For GEEMDTAEIARQVKEQLIKHNIGQRIFGHYVHGLSQGSVSEILARPKPWNKLTVRGKEPFHKMKQFLSDEQNILALRSIQGR, which abundance fitness is on record?
Answer: -0.723 ± 0.12

Question: For GEEMDTAEIARQVKEQLIKHNIGQRIFGHYVNGLSQGSVSEILARPKPWNKLTVRGKEPFHKMKQFLSDEQNILALRSIQGR, which abundance fitness is on record?
Answer: -0.768 ± 0.12

Question: With GEEMDTAEIARQVKEQLIKHNIGQRIFGHYVEGLSQGSVSEILARPKPWNKLTVRGKEPFHKMKQFLSDEQNILALRSIQGR as the variant, how does the abundance fitness read?
Answer: -0.792 ± 0.05

Question: For GEEMDTAEIARQVKEQLIKHNIGQRIFGHYVKGLSQGSVSEILARPKPWNKLTVRGKEPFHKMKQFLSDEQNILALRSIQGR, which abundance fitness is on record?
Answer: -0.986 ± 0.091

Question: For GEEMDTAEIARQVKEQLIKHNIGQRIFGHYVFGLSQGSVSEILARPKPWNKLTVRGKEPFHKMKQFLSDEQNILALRSIQGR, which abundance fitness is on record?
Answer: -0.988 ± 0.24

Question: Which abundance fitness does the source give for GEEMDTAEIARQVKEQLIKHNIGQRIFGHYVMGLSQGSVSEILARPKPWNKLTVRGKEPFHKMKQFLSDEQNILALRSIQGR here?
Answer: -0.317 ± 0.046

Question: Which abundance fitness does the source give for GEEMDTAEIARQVKEQLIKHNIGQRIFGHYVCGLSQGSVSEILARPKPWNKLTVRGKEPFHKMKQFLSDEQNILALRSIQGR here?
Answer: -0.281 ± 0.056

Question: For GEEMDTAEIARQVKEQLIKHNIGQRIFGHYVIGLSQGSVSEILARPKPWNKLTVRGKEPFHKMKQFLSDEQNILALRSIQGR, which abundance fitness is on record?
Answer: -0.562 ± 0.088

Question: For GEEMDTAEIARQVKEQLIKHNIGQRIFGHYVDGLSQGSVSEILARPKPWNKLTVRGKEPFHKMKQFLSDEQNILALRSIQGR, which abundance fitness is on record?
Answer: -0.773 ± 0.083

Question: With GEEMDTAEIARQVKEQLIKHNIGQRIFGHYVAGLSQGSVSEILARPKPWNKLTVRGKEPFHKMKQFLSDEQNILALRSIQGR as the variant, how does the abundance fitness read?
Answer: -0.732 ± 0.044

Question: For GEEMDTAEIARQVKEQLIKHNIGQRIFGHYVGGLSQGSVSEILARPKPWNKLTVRGKEPFHKMKQFLSDEQNILALRSIQGR, which abundance fitness is on record?
Answer: -0.839 ± 0.042
